Laboratory results: patent publication US20240084004A1

T1: canine PD-1 (canine Programmed Death Receptor 1) antigen (canine)
T1 sequence: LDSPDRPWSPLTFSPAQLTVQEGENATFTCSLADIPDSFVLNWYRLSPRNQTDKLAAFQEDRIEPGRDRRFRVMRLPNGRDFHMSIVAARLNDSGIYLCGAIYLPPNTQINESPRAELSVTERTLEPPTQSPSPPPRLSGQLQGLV


How the values were obtained:
[1] = molecular target: T1, canine PD-1 (canine Programmed Death Receptor 1) antigen (canine); assay: SPR (Biacore T200), canine PD-1 immobilized by amine coupling, antibody as analyte, 1:1 fit
[2] = molecular target: T1, canine PD-1 (canine Programmed Death Receptor 1) antigen (canine); assay: SPR (Biacore T200), canine PD-1 immobilized by amine coupling, antibody as analyte, 1:1 fit; off-rate below detection limit

| Binder | kon [1] | Kd [2] | koff [2] | Kd [1] | koff [1] |
| --- | --- | --- | --- | --- | --- |
| Murine 2H9 (mouse anti-canine PD-1 monoclonal antibody) (antibody, V domains shown) VH: EVQLQQSVAELVRPGASVKLSCTASGFNIKNTYMHWIKQRPEQGLEWIGRIAPANVDTKYAPKFQGKATITADTSSNTAYMQLSTLTSEDTAIYYCVLIYYDYDGDIDVWGTGTTVTVSS VL: DIQMNQSPSSLSASLGDTITITCHASQNINVWLSWYQQRPGNIPKLLIYKASHLHTGVPSRFSGSGSGTGFTLTISSLQPEDIATYYCQQGQSWPLTFGAGTKLELK | 23000 M⁻¹ s⁻¹ | < 0.2 nM | < 5e-06 s⁻¹ |  |  |
| Murine 3B6 (mouse anti-canine PD-1 monoclonal antibody) (antibody, V domains shown) VH: QIQLVQSGPELKKPGETVKISCKASGYTFTTYGMSWVKQAPGKGLKWMGWINIYSGIPTYADDFKGRFAFSLETSASTAYLQIDNLKNEDTATYFCARFDGPDYWGQGTTLTVSS VL: DIVMTQSPSSLAVSVGRKVTMSCKSSQSLLNSVNQKNYLAWYQQKPGQSPKVLVYFASARVSGVPDRFIGSGSGTDFTLAISSVQAEDLTTYFCQQYFSTPLTFGAGTKLELK | 18000 M⁻¹ s⁻¹ |  |  | 2 nM | 3.4e-05 s⁻¹ |
